Target: C. jejuni outer membrane channel CmeC (C. jejuni) (UniProt Q8RTE3)
Assay: crystal structure

For “C. jejuni outer membrane channel CmeC (from UniProt Q8RTE3 1-492) (natural protein)”, the stoichiometry N was 3.

From publication PMC4755347
